Laboratory results as given in PMC9114768 (2022).

B1: monoclonal antibody 127 (antibody, V domains shown)
VH: QVQLQQPGAELVKPGASVKLSCKASGYTFTSYWMHWVKQRPGQGLEWIGEINPSNGRKNYNEKFKSKATLTVDKSSSTAYMQLSSLTSEDSAVYYCVRGDYGSSYYWYFDVWGAGTTVTVSS
VL: not shown
B2: monoclonal antibody 150 (antibody, V domains shown)
VH: B1 VH
VL: not shown

Tests used:
[1] = target: C-terminal Fc-tagged human ACE2 recombinant protein (human, UniProt Q9BYF1); test: SPR
[2] = target: His-tagged SARS-CoV-2 S1-RBD recombinant protein, wild type (SARS-CoV-2, UniProt P0DTC2 319-541); test: SPR

Chain of C-terminal Fc-tagged human ACE2 recombinant protein (Q9BYF1 18-740): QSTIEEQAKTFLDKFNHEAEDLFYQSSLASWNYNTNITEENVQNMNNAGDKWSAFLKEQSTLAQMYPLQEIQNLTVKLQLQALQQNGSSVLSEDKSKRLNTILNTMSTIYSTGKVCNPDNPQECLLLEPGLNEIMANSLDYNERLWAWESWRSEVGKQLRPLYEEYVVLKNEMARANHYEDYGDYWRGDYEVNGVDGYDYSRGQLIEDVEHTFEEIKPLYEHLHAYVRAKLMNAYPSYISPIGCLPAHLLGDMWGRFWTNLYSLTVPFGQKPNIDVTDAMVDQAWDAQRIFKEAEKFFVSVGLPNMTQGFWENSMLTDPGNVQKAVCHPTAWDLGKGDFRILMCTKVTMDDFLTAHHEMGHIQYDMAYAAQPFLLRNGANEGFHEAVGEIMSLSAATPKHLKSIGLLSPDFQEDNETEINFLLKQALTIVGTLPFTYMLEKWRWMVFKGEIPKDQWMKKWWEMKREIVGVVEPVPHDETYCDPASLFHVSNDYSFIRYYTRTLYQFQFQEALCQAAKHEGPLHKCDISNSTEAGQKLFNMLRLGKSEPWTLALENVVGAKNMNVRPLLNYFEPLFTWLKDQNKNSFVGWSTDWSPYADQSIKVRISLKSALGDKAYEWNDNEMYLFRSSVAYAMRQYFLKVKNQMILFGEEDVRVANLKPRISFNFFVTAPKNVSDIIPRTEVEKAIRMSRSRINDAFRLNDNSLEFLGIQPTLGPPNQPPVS

| Binder | koff [1] [s⁻¹] | koff [2] [s⁻¹] |
| --- | --- | --- |
| B1 | 0.000442 | 0.00013 |
| B2 | 0.00039 | 0.000441 |
